Reference: patent US20200216824A1, “REGULATING PROTEIN SPONTANEOUS RUPTURES” (Bowling Green State University, priority 2019, published 2020)
Entries after “also recorded” stand apart in the source; their conditions may differ.

What was measured:
calmodulin (CaM) = calmodulin (CaM) (Homo sapiens, UniProt P0DP23); experiment: Effect of Ca2+ / EGTA on CaM rupture under AFM compressive force; details: 1 mM CaCl2 for Ca2+; 2 mM EGTA buffer treatment
Description: (§1) In the experiment of compressive force manipulation on both Apo- and Ca^2+-ligated CaM, a modified AFM apparatus with an ultra-soft AFM tip was used to apply compressive force on a single protein molecule tethered to a glass coverslip through covalent bonding between the linker molecule and amino group of the protein, and its response was studied.
The same experiment was carried out on Ca^2+-ligated CaM. FIG. 14B represents the typical AFM compressive force curve on a Ca^2+-ligated single CaM molecule. […] Nevertheless, repeated rupture events on a single protein molecule have been noticed when a repeated force manipulation experiment on the same protein molecule has been carried out.
FIG. 29 illustrates the scheme of tethering single protein molecules on a cover glass surface. The cover glass (Gold Seal) was first cleaned and silanized with a mixture of (3-aminopropyl) trimethoxysilane, isobutyltrimethoxysilane with a ratio of 1:1000 dissolved in DMSO (10% v/v) for 12 hours, and then incubated in 10 nM dimethyl suberimidate in 50 mM PBS (pH 8.0) for 4 h. After washing with water and methanol, the glass slide was incubated in 10 nM CaM solutions (PBS, pH 7.4) for 4 h. […]
Typical compressive force curves were recorded under different conditions. […]

tau protein = tau protein (Homo sapiens, UniProt P10636); experiment: Effect of cations on tau protein rupture under AFM compressive force; details: buffer solution pH 7.4
Sequence of tau protein (P10636 1-441 isoform P10636-8): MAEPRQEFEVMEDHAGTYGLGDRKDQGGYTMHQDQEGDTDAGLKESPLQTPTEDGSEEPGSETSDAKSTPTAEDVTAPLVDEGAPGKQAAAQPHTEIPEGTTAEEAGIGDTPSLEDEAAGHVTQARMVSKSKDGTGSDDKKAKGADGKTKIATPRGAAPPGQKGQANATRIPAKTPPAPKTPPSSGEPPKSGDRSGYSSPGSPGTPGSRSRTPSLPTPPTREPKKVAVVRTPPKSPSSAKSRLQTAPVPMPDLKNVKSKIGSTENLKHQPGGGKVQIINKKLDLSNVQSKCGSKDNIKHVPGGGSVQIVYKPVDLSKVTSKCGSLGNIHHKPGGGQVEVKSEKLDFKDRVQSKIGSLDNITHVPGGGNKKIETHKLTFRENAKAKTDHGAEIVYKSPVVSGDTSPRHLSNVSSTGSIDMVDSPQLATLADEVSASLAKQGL
Text: This gives the indication of the presence of two forms of tau protein under different ionic environment. Under K^+environment tau protein exists as a relatively rigid protein structure which is more prone to collapse under compressive force build up. […] In addition, it was also investigated whether this kind of spontaneous and simultaneous rupture of multiple proteins under close proximity can develop an entangled protein third state, a fusion state, and can be a plausible mechanism for protein aggregation.
The protein molecules were tethered to the cover glass through covalent bonding between the amine group of the protein and the linker molecule attached to the coverglass surface. All the force curves were recorded under buffer solution (pH 7.4). When the AFM tip apex touches the surface of the protein molecule it starts loading force on it, once the force reaches a threshold value it can no longer withhold the force and collapses (FIG. 16A). This kind of behavior exists in globular proteins such as HPPK, calmodulin, and others.
Without wishing to be bound by theory, it is believed that there is a comprehensive model for two types of protein structure responses under compressive forces (FIG. 18C, green curve). One is a balloon-like type, reflected by the stress-strain curve in FIG. 18C, which is more rigid in nature and show rupture under compressive force. […]

[1] = AFM compressive force rupture of single CaM molecules (CaM, Apo-CaM, Ca2+-ligated CaM); type: physicochemical
Description: The mean rupture force from the distributions are 25 pN and 47 pN for CaM and HPPK molecules, respectively. ΔG was also calculated for CaM rupture, which is about 25.6±7.3 kBT using Bell-Evans Model. The characteristic behavior is due to different structural rigidity and a different vector orientation of the mechanical force inside different protein molecules.
The experiments for CaM protein were repeated under five different ALRs. FIGS. 11A-11E show the statistical distribution of the threshold force at five different ALRs and characterization of CaM rupture force and loading energy. FIGS. 11A-11E show the rupture threshold force distribution in different loading velocities. […] Loading velocity is 100 nm/s. The threshold force required for a single CaM protein molecule to rupture increases from 12 pN to 35 pN as the approaching velocity increases from 50 nm/s to 1000 nm/s, and the threshold force increases linearly along with the log of ALR (FIG. 8D).
as §1
From this distribution, the rupture force was calculated to be around 70 pN. This rupture force is dependent on the AFM tip approaching velocity. To calculate the actual threshold force loading distance, i.e., the amount of structural change of the targeted Apo-CaM molecule under the process of compressive force loading to the threshold value, the force curves were analyzed considering two factors. First, the force loading process causes the tip bending. Because of that, the distance traveled by the electropiezo scanner exceeds the distance traveled by the AFM tip apex. The amount of tip bending in the process of force loading can be easily taken in account considering the force constant of the cantilever (30 pN/nm). Second, the contribution of the hydration shell around a protein molecule (1-2 nm of width) was considered. Therefore, in the recorded force curves, force increases in a much slower rate at the beginning which corresponds to the AFM tip interaction with the outer solvation layer of the protein. In the latter part of the force curve, the force increases in a much faster manner as the AFM tip starts to interact with the protein surface directly. Without wishing to be bound by theory, it is believed that the contact occurs when the compressive force loaded by the AFM tip reaches a certain value to counter the water solvation layer. […]
It is the distance between the point where force loading starts and the point where protein rupture occurs. […] The loading energy was calculated using Eloading=∫F(l)dl, where l is the compressive force loading distance, and F(l) is the loading force. […] Under this approximation, distribution of the calculated threshold compressive force loading energy was plotted in FIG. 15D using Eloading=(F threshold/2)×lthreshold and the mean value was around 32 kBT; however, the energy can be as low as 10 kBT with significant probability, which is biologically accessible from the local thermal fluctuations, such as in living mammalian cells at 37° C.
The loading energy was calculated using Eloading=J F(l)dl. l is the compressive force loading distance, and F(l) is the loading force curve. […]

[2] = AFM-FRET compressive force rupture of single HPPK molecules; type: physicochemical
Text: 6-hydroxymethyl-7,8-dihydropterin pyrophosphokinase (HPPK) is a 158-residue monomer kinase enzyme protein which acts as a catalyst in the pyrophosphorylation reaction that drives the conversion of 6-hydroxymethyl-7,8-dihydropterin (HP) to 6-hydroxymethyl-7,8-dihydropterin pyrophosphate (HPPP) in the presence of ATP leading to the biosynthesis of folate cofactors. AFM was used to apply the compressive force on single protein molecules that are tethered on the glass cover slip surface at a controlled low density for single-molecule measurements. The enzyme HPPK was labeled with Cy3/Cy5 donor acceptor FRET pair on the amino acid residues 88 and 142, respectively (FIG. 2A), for probing the conformational changes of single protein under the compressive force.
The structural rupture of a single HPPK protein under compressive force applied by AFM tip was evaluated. […] When the AFM tip touches a single protein molecule, a compressive force is applied on the targeted protein, the force monotonically increases up to the level of about 60 pN (FIG. 1E), and then the force drops to zero abruptly.
As the piezo continues to approach toward the surface, the compressive force on the protein molecule increases; simultaneously, the protein starts to deform. When the force reaches a threshold value, the protein molecule suddenly ruptures, and the force on the tip releases to zero. As the AFM piezo continues to approach the glass coverslip surface, the tip on glass cannot move anymore, and as a result, piezo displacement causes tip bending. Therefore, from top to bottom, the cantilever bending distance=the piezo displacement D (nm); and the direct AFM instrumental electronic signal was measured and recorded for the loading force, F (mV). If the cantilever force constant k (pN/nm) is known, then, from the reading of measured f (mV), the protein rupture threshold force (pN)=[…] can be calculated.
To evaluate the relation between the compressive threshold force and the tip approaching velocity, the experiment was repeated under different approaching velocities (FIGS. 8-9). The threshold force for a single protein HPPK rupture increases as the apparent loading rate (ALR) by the AFM tip increases (FIG. 8B). ALR equals the approaching velocity times the force constant of AFM cantilever.
A two-state theoretical model, the Bell-Evans theory (eqn. 3), was used to analyze the linear dependence of rupture force with the logarithm of loading rate (FIG. 8B):
where F(r) is the most probable rupture force; kB, the Boltzmann's constant; T, temperature in Kelvin; Xβ is the distance between the bonded state and the transition state where the activation barrier is located; r, the loading rate; and ko the off-rate constant at zero force. The fitting gives two model parameters, kinetic off rate constant ko=12.2±4.5 s^−1 and the distance from the bound to transition state, Xβ=0.34±0.05 nm. Using ko, the barrier height of the transition state (ΔG) was also calculated using the following equation (eqn. 4), where h is the Planck's constant. ΔG of HPPK protein rupture is 27.0±9.8 kBT.
The cover glass (Gold Seal) was first cleaned and silanized with a mixture of (3-aminopropyl) trimethoxysilane and isobutyltrimethoxysilane with a ratio of 1:10000 dissolved in DMSO (10% v/v) for 12 hours, and then incubated in 10 nM dimethyl suberimidate in 50 mM PBS (pH 8.0) for 4 h. After washing by water and methanol, the glass slide was incubated in 10 nM HPPK solutions (PBS, pH 7.4) for 4 h. The possibility of two protein molecules locating underneath the AFM tip or in the same laser focus spot of around 300 nm diameters is almost zero. Cy3-Cy5 labeled HPPK molecules were tethered randomly on a cover glass surface and then incubated in PBS buffer (pH=7.4) in a homemade chamber immobilized on top of the microscope. To decrease photobleaching, added 0.8% D-glucose, 1 mg/mL glucose oxidase, 0.04 mg/mL catalase, and about 1 mM Trolox were added in the buffer as an oxygen scavenger. […]

Molecule: [Ca+2] [Ca^2+]
- rupture event of CaM under compressive force in presence of / after treatment with the substance (calmodulin (CaM)): does not go through a structural rupture; also recorded: No force drop was recorded

Molecule: O=C(O)CN(CCOCCOCCN(CC(=O)O)CC(=O)O)CC(=O)O [EGTA, reference compound]
- rupture event of CaM under compressive force in presence of / after treatment with the substance (calmodulin (CaM)): the rupture event recovers

Molecule: [K+] [K^+, reference compound]
- rupture event of tau protein under compressive force in presence of the cation (tau protein): the rupture event remains

Molecule: [Mg+2] [Mg^2+]
- rupture event of tau protein under compressive force in presence of the cation (tau protein): does not show such rupture events; also recorded: no rupture event was found; also recorded: No rupture event was observed

Molecule: calmodulin [CaM]
- rupture threshold force ([1]; 50 nm/s approaching velocity): 12 pN
- loading energy ([1]; 100 nm/s loading velocity): 4-8 kBT
- mean rupture force ([1]; 200 nm/s loading velocity): 25 pN
- rupture threshold force ([1]; 1000 nm/s approaching velocity): 35 pN
- ΔG of rupture ([1]; Bell-Evans Model): about 25.6±7.3 kBT

B1: 6-hydroxymethyl-7,8-dihydropterin pyrophosphokinase (protein, UniProt P26281 2-159, looked up)
2-amino-4-hydroxy-6-hydroxymet …: TVAYIAIGSNLASPLEQVNAALKALGDIPESHILTVSSFYRTPPLGPQDQPDYLNAAVALETSLAPEELLNHTQRIELQQGRVRKAERWGPRTLDLDIMLFGNEVINTERLTVPHYDMKNRGFMLWPLFEIAPELVFPDGEMLRQILHTRAFDKLNKW
notes: 158-residue monomer kinase enzyme protein
- rupture threshold force (mean) ([2]; 200 nm/s approaching/loading velocity): 47 pN
- threshold compressive force loading energy ([2]; 200 nm/s loading velocity): around 30 kBT
- rupture threshold force ([2]; 2000 nm/s approaching velocity): 75 pN
- distance from the bound to transition state Xβ ([2]; Bell-Evans fit): 0.34±0.05 nm
- kinetic off rate constant ko ([2]; Bell-Evans fit of rupture force vs loading rate): 12.2 ± 4.5 s⁻¹
- AFM piezoelectric displacement from start of force loading to rupture ([2]; average, FIG. 10C): 5.0˜6.0 nm
- barrier height of the transition state ΔG of protein rupture ([2]; calculated from ko): 27.0±9.8 kBT
- compressive force level reached before abrupt drop ([2]; single force curve, FIG. 1E): about 60 pN
